Assays:
[1] = molecular target: T1, human DSG-3 (human, UniProt P32926 50-615, limits assumed); assay: BLI (Octet), test article captured on anti-human Fc biosensors, human DSG-3 as analyte, 1:1 global fit
T1 construct: Soluble analyte (Octet) and plate coat (ELISA); also called hDSG-3
T1 sequence (looked up): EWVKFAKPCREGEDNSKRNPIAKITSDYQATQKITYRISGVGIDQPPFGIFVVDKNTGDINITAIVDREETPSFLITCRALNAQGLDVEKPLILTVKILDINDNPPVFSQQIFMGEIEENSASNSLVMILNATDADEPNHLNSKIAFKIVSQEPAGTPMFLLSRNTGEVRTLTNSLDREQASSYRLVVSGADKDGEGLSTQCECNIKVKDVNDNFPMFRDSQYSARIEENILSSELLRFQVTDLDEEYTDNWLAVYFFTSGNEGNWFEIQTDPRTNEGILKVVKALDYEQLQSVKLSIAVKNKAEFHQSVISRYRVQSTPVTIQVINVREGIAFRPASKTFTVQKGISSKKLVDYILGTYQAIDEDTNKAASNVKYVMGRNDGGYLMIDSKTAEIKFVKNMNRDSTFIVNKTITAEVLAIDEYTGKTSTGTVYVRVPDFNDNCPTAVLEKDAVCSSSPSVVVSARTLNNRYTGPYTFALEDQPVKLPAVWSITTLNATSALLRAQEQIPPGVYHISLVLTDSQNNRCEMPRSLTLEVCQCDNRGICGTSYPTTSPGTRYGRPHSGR
Protocol: Anti-human Fc biosensors were equilibrated in assay buffer (PBS, pH 7.4 with 1% BSA, and 0.05% Tween-20) for 30 minutes before the experiment was set-up. Test articles were diluted to 5 ug/mL in assay buffer. A two-fold, seven-point dilution of human DSG-3 (starting at 300 nM as the highest concentration) was made. Test articles were captured using anti-human Fc biosensors for 180 s. Biosensors loaded with test articles were equilibrated in assay buffer for 120 s; association was performed for 180 seconds and dissociation was performed for 300 s. Kinetic parameters (kon and kdis) and dissociation constant (KD) were calculated from a 1:1 global fit model using the data analysis software of the Octet96 RED software version 10.

[2] = molecular target: PD-1 on PD-1 reporter Jurkat cells (human, UniProt Q15116 25-288); assay: cell-based or functional assay
[3] = molecular target: T2, mouse PD-1 (mouse, UniProt Q02242 25-167, limits assumed); assay: no binding assay described; said in the vitiligo mouse model example
T2 sequence (looked up): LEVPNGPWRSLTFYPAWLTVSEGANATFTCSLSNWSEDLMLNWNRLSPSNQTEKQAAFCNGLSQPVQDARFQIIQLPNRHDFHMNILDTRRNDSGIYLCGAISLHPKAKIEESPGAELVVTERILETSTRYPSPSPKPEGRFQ

Sequence of PD-1 on PD-1 reporter Jurkat cells (Q15116 25-288): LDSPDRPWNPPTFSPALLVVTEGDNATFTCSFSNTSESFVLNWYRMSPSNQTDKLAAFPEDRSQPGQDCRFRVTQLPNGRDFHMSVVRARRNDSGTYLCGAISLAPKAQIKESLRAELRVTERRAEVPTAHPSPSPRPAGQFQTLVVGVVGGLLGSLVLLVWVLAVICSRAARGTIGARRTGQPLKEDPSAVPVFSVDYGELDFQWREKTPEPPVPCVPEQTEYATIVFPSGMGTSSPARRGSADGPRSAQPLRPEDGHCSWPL

Kd [1]: 29 nM | koff [1]: 0.000757 s⁻¹ | SHP-2 recruitment in PD-1 reporter Jurkat cells (test article on anti-human IgG coated plate), EC50 at 2 hours [2]: 21.2 nM | SHP-2 recruitment in PD-1 reporter Jurkat cells (test article on anti-human IgG coated plate), EC50 at 24 hours [2]: 16.6 nM | binding result [3]: no binding
B1: PD1DSGAB9 (bispecific antibody)
heavy: EVQLLESGGGLVQPGGSLRLSCAASGFTFSNSDMSWVRQAPGKGLEWVSGITISGGSTYYADSVKGRFTISRDNSKNTLYLQMNSLRAEDTAVYYCARGRGGSGWLDYWGQGTLVTVSSASTKGPSVFPLAPSSKSTSGGTAALGCLVKDYFPEPVTVSWNSGALTSGVHTFPAVLQSSGLYSLSSVVTVPSSSLGTQTYICNVNHKPSNTKVDKKVEPKSCDKTHTCPPCPAPEAAGAPSVFLFPPKPKDTLMISRTPEVTCVVVDVSHEDPEVKFNWYVDGVEVHNAKTKPREEQYNSTYRVVSVLTVLHQDWLNGKEYKCKVSNKALPAPIEKTISKAKGQPREPQVYTLPPSREEMTKNQVSLTCLVKGFYPSDIAVEWESNGQPENNYKTTPPVLDSDGSFFLYSKLTVDKSRWQQGNVFSCSVMHEALHNHYTQKSLSLSPGGGGGSGGGGSGGGGSQSVLTQPPSVSGTPGQRVTISCSGSSSHIGSNYVYWYQQLPGTAPKILIYSNDQRPAGVPDRFSASKSGTSASLAISGLRSEDEADYYCAAWDDGQGGVFGGGTKLTVLGGGGSGGGGSGGGGSGGGGSQVQLQESGPGPVKPSGTLSLTCGVSGGSISSNHWWTWVRQPPGKGLEWIGEIYHNGSTFLNPSLKSRVTISVDKSNNQFSLKLTSVTAADTAVYYCARGWHRTGFRGYPSHWYFDLWGRGTLVSVSS
light: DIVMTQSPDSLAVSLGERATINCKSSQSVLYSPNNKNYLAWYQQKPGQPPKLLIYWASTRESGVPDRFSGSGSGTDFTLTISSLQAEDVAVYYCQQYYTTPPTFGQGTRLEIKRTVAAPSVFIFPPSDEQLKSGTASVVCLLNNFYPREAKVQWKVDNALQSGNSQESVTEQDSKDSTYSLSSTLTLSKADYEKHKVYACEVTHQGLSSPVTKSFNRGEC
notes: also called PD1DS91; copies: 2 + 2

Reference: patent publication US20240262905A1 (PANDION OPERATIONS, published 2024)
